B1: TPR t1 (parent)
chain: GACCAAUCUGCCCUCAGAGCUCGAGAACAUCUUCGGAUGCAGAGGAGGCAGGCUUCGGUGGCGCGAUAGCGCCAACGUCCUCAACCUCCAAUGCAUCCCACCACAUGAUGAUGCCUGAAGAGCCUUGGUUUUUUG

Variants of: B1
Assay: polymerase ribozyme fitness, log enrichment relative to wild type (log ratio); higher = more active; in vitro selection for triplet polymerase activity
Summary of the method: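 Fitness compares each genotype's enrichment to that of the wild type on a logarithmic scale, averaging replicates with inverse-variance weights. The logarithm is base 2. Enrichment came from Illumina sequencing of input and output libraries after one triplicate round of in vitro selection, which included frozen incubation at −7 °C, of PCR-built, transcribed mutant libraries of each subunit of a heterodimeric triplet polymerase ribozyme. Only genotypes with ≥10 input reads and ≥1 read per output were kept.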

Variant | polymerase ribozyme fitness (log ratio)
C8U C62U C79U C82U A91U A105G C123G U129G U131G | -5.84
C8U C64A U78C | -6.51
C8U C64U U96C | -0.074
C8U C72A C98U U116A G128C | -6.24
C8U C72U U87C | 0.806
C8U C73A | 1.41
C8U C73A C88G | -1.06
C8U C73A C123A | 2.02
C8U C80G | -4.55
C8U C82U G113U | -2.67
C8U C82U U116G G117A | 0.198
C8U C85U C124G | 2.05
C8U C94A | -0.617
C8U C97U U116C | -0.891
C8U C99U | -2.32
C8U C104G U106A C124G | -3.63
C8U C114G U126C | -1.85
C8U C124A | 2.27
C8U C124U | 1.6
C8U G17A | -2.57
C8U G19A U21C U55C | -2.54

Variant | polymerase ribozyme fitness (log ratio)
C8U G19C C56A C115A | -2.03
C8U G19C G42U A91G C123U | -0.955
C8U G36A A66C A84C G117A | -3.32
C8U G42A C88U | -0.816
C8U G42U A50U | -3.49
C8U G44A C56A C72A U81C A111C | -3.76
C8U G44U C88G | -1.96
C8U G44U C88G U92A | -3.81
C8U G44U C99U | -2.6
C8U G48A A50G | -1.52
C8U G48C | 0.186
C8U G48C C56A | -0.762
C8U G51A C56A G120U | -3.67
C8U G52A A74U U112C | 1.59
C8U G52U C56A G77U A121U | 1.55
C8U G52U C86A | -1.28
C8U G57U G110U | -1.01
C8U G57U U112A | 1.64
C8U G58A G110A | -1.27
C8U G58U A111G U126C | -1.57
C8U G60C G61C C72A C101U | -1.33

Variant | polymerase ribozyme fitness (log ratio)
C8U G61A | 0.644
C8U G63A C102A U106C G113A U130G | -5.25
C8U G71A | -0.229
C8U G93C | 0.0241
C8U G93C C114U | -1.54
C8U G117A A119U C123U U133G | -1.22
C8U G117U U126C | -3.25
C8U G120U | 1.14
C8U U9A A18U C76G | -1.89
C8U U9A C11A C13A G44U C73A A100U C102U | -4.18
C8U U9C A119U | 0.976
C8U U9G A37G G117C | -0.0473
C8U U9G U59C C72U | 0.524
C8U U14A G61A | -0.345
C8U U14C U78C U106A G120A | 1.87
C8U U21A U30C C56U | -3.2
C8U U21C G122A | -0.0897
C8U U21C U87G G122A | -0.0757
C8U U30C C49U C124G U133G | -3.25
C8U U32G C101A C115G | -5.52
C8U U33A | -3.59

Variant | polymerase ribozyme fitness (log ratio)
C8U U38G G51A | -3.4
C8U U92A | -2.72
C8U U96G G110U | -2.02
C8U U129G U133A | -1.94
U9A A16C C49U A66G C101G C123A | -4.86
U9A A16U A24C U33G G36A C115U | -7.16
U9A A16U G63U U132A | -1
U9A A18G C82U C115U | -3.35
U9A A18U A41G U92A | -2.99
U9A A24C U59C A91U A111C | -6.66
U9A A24G G42A G52C C72G | -3.17
U9A A26U C40G G58C U125G | -4.12
U9A A27U C28A U78C U96A U106A G117A | -4.8
U9A A29U A41U G60A U78C G93U A119G | -2.57
U9A A29U G36C G44U C72A A84G | -3.62
U9A A37U | 0.568
U9A A37U A41G | 0.164
U9A A43U C70U C82A U87C U131A | -1.6
U9A A46G C85U U125A | -1.94
U9A A46U G63C C82G C86A | -1.25
U9A A50G C88G A108U | -4.75
